Values quoted from earlier work, collected in article PMC8745658.

Biological target: Cytochrome b5 soluble isoform (Homo sapiens) (UniProt P00167)
Assay: flavin autofluorescence

UniProt P00167, sequence (P00167 2-98): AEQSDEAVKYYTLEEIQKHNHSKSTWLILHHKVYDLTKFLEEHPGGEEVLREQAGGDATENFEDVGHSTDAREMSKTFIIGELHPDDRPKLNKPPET

Substance: Cytochrome b5 reductase soluble isoform (from UniProt P00387)
- Kd: 500 nM
